Laboratory results: patent US20090192048A1, “METHOD OF PRODUCING A […] AGENT FOR BINDING A LIGAND” (priority 2005, published 2009)
Ends that are not written are not given here.

Experiments:
Format in all cases: physicochemical
[1] = Retention of peptides on Greiner polypropylene V-bottom wells; details: 400V scan
How it was run: (§1)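 Peptides (5 μM) and TAMRA dried from 5 mM tris-HCl pH 8.0 in 75% acetonitrile in V-bottom wells; some wells washed 15 min at room temperature with 1 M NaCl in 10 mM tris-HCl pH 8.0. Residue redissolved in 10 mM tris-HCl pH 8.0/50% acetonitrile; retained fluorescence imaged with 532 nm excitation, 580 BP 30 filter.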

[2] = Retention of peptides on Costar polypropylene V-bottom wells; details: 400V scan
How it was run: as §1

[3] = Retention of peptides on Greiner polystyrene V-bottom wells; details: 400V scan
How it was run: as §1

[4] = pH resistance of peptide 2DOS-2 deposited onto a polypropylene hydrophobic surface; details: for Retained fluorescence: 100 mM phosphate buffer 30 minutes
Procedure: The pH resistance of peptide 2DOS-2 (see above) deposited onto a polypropylene hydrophobic surface was investigated:
Twelve 50 μl aliquots of peptide 2DOS-2 in 10 mM tris-HCl (pH 8.0) in 50% (v/v) aqueous acetonitrile were dried down in the wells of a Costar microtitre plate.
The peptide samples were allowed to evaporate to dryness in the dark.
The dried peptide samples in the first eleven wells were incubated with 200 μl of 100 mM phosphate buffer for 30 minutes at room temperature according to the scheme shown in Table 3:
All supernatants were pipetted off and the residual surface-bound peptides in all twelve wells were finally resuspended in 50 μl of 10 mM tris-HCl (pH 8.0) in 50% (v/v) aqueous acetonitrile and the microtitre plate was imaged at 200 μm resolution on a Typhoon Trio Plus variable mode imager (Amersham Biosciences) with the green (532 nm) laser and the 580 BP 30 filter at the PMT voltages indicated below and at normal sensitivity. The scan height was set at +3 mm and the sample was pressed during scanning.
The fluorescence images were analysed using ImageQuant TL v2003.03 (Amersham Biosciences).
Quantification data for peptide 2DOS-2 retention (using data from the 300V scan) are given in Table 8 and graphically in FIG. 19: […]

[5] = Retention of peptides 2DOS-1 to 2DOS-16 on a hydrophobic surface (polypropylene microtitre plate wells), water wash; details: 400V scan
How it was run: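 10 μM peptides, with TAMRA, in 10 mM tris-HCl pH 8.0 in 50% acetonitrile, dried overnight in polypropylene wells, then washed ten times with water. Retained peptide resuspended in the same solvent and fluorescence imaged (532 nm excitation, 580 nm filter). Quantified from 400 V scans.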

[6] = Retention of peptides in flat-bottomed polypropylene wells; details: flat-bottom wells, 500V scan
How it was run: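 1 μl of 10 μM peptide or TAMRA in 10 mM Tris-HCl pH 8.0/50% acetonitrile dried in the dark in flat- or V-bottomed polypropylene wells. Some wells washed 15 min at RT with 1 M NaCl in 10 mM Tris pH 8.0, others left untreated; all redissolved in 50 μl Tris/acetonitrile and fluorescence imaged at 532 nm excitation, 580 BP 30 filter.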

[7] = washed 15 minutes in 1 M NaCl in 10 mM tris-HCl (pH 8.0)

N-TAMRA-Phe-Asp- Phe-Ala-Phe-Ser- Phe-Lys-Phe-C ({TAMRA}-FDFAFSFKF) [Peptide 2DOS-2]
Percent retention [1]: 78%
Untreated fluorescence ([1]; unwashed): 3,512,023
Retained fluorescence [1, 7]: 2,731,827
Percent retention [2]: 94%
Untreated fluorescence ([2]; unwashed): 5,692,134
Retained fluorescence [2, 7]: 5,349,601
Percent retention [3]: 64%
Untreated fluorescence ([3]; unwashed): 614,203
Retained fluorescence [3, 7]: 392,422
Untreated fluorescence ([4]; 300V scan, unwashed well): 815,706
Stability of retention on polypropylene over pH (in words) ([4]; pH 4.51 to 8.52): stable over a broad range of pH values
Percent retention ([4]; wash pH 4.51): 83%
Retained fluorescence ([4]; wash pH 4.51, 300V scan): 681,015
Percent retention ([4]; wash pH 5.65): 71%
Retained fluorescence ([4]; wash pH 5.65, 300V scan): 582,482
Percent retention ([4]; wash pH 6.02): 67%
Retained fluorescence ([4]; wash pH 6.02, 300V scan): 548,329
Percent retention ([4]; wash pH 6.25): 67%
Retained fluorescence ([4]; wash pH 6.25, 300V scan): 542,595
Percent retention ([4]; wash pH 6.47): 72%
Retained fluorescence ([4]; wash pH 6.47, 300V scan): 589,528
Percent retention ([4]; wash pH 6.62): 69%
Retained fluorescence ([4]; wash pH 6.62, 300V scan): 566,496
Percent retention ([4]; wash pH 6.79): 71%
Retained fluorescence ([4]; wash pH 6.79, 300V scan): 576,655
Percent retention ([4]; wash pH 6.98): 70%
Retained fluorescence ([4]; wash pH 6.98, 300V scan): 570,653
Percent retention ([4]; wash pH 7.18): 72%
Retained fluorescence ([4]; wash pH 7.18, 300V scan): 586,083
Percent retention ([4]; wash pH 7.47): 75%
Retained fluorescence ([4]; wash pH 7.47, 300V scan): 614,028
Percent retention ([4]; wash pH 8.52): 81%
Retained fluorescence ([4]; wash pH 8.52, 300V scan): 661,781
Initial fluorescence (×10^3) ([5]; 100 μl of 10 μM peptide before drying and washing): 32,492 ×10^3
Recovered fluorescence (×10^3) ([5]; dried, washed ten times with 250 μl water, resuspended): 15,704 ×10^3
Percent retention [6]: 93%
Untreated fluorescence ([6]; unwashed): 15,820,680
Retained fluorescence [6, 7]: 14,665,720
